Measured values: patent publication US20260049138A1 (Chugai, published 2026)

B1: GLS3000 N30V one-arm antibody (antibody, human IgG1, kappa, L234A L235A, N297A, name in Kabat numbering)
heavy: QVQLVESGGGVVQPGRSLRLSCAASGFTFSNAWMHWVRQAPGKGLEWVAQIKAKSNNYATYYAESVKGRFTISRDDSKNSLYLQMNSLKTEDTAVYYCRYVHYGAYYGVDAWGQGTTVTVSSASTKGPSVFPLAPSSKSTSGGTAALGCLVKDYFPEPVTVSWNSGALTSGVHTFPAVLQSSGLYSLSSVVTVPSSSLGTQTYICNVNHKPSNTKVDKKVEPKSCDKTHTCPPCPAPEAAGGPSVFLFPPKPKDTLMISRTPEVTCVVVDVSHEDPEVKFNWYVDGVEVHNAKTKPREEQYASTYRVVSVLTVLHQDWLNGKEYKCKVSNKALPAPIEKTISKAKGQPREPQVYTLPPSRCELTKNQVSLSCAVKGFYPSDIAVEWESNGQPENNYKTTPPVLDSDGSFFLVSKLTVDKSRWQQGNVFSCSVMHEALHNHYTQKSLSLSPDYKDDDDK
chain: EPKSSDKTHTCPPCPAPELLGGPSVFLFPPKPKDTLMISRTPEVTCVVVDVSHEDPEVKFNWYVDGVEVHNAKTKPREEQYNSTYRVVSVLTVLHQDWLNGKEYKCKVSNKALPAPIEKTISKAKGQPREPQVCTLPPSRDELTKNQVSLWCLVKGFYPSDIAVEWESNGQPENNYKTTPPVLDSDGSFFLYSKLTVDKSRWQQGNVFSCSVMHEALHNRYTQKSLSLSP
light: DIVMTQSPLSLPVTPGEPASISCRSSQSLVHSNRVTYLHWYQQKPGQAPRLLIYKVSNRFSGVPDRFSGSGSGTDFTLKISRVEAEDVGVYYCGQGTQVPYTFGQGTKLEIKRTVAAPSVFIFPPSDEQLKSGTASVVCLLNNFYPREAKVQWKVDNALQSGNSQESVTEQDSKDSTYSLSSTLTLSKADYEKHKVYACEVTHQGLSSPVTKSFNRGEC
B2: GLS3000 N30W one-arm antibody (antibody, human IgG1, kappa, L234A L235A, N297A, name in Kabat numbering)
heavy: QVQLVESGGGVVQPGRSLRLSCAASGFTFSNAWMHWVRQAPGKGLEWVAQIKAKSNNYATYYAESVKGRFTISRDDSKNSLYLQMNSLKTEDTAVYYCRYVHYGAYYGVDAWGQGTTVTVSSASTKGPSVFPLAPSSKSTSGGTAALGCLVKDYFPEPVTVSWNSGALTSGVHTFPAVLQSSGLYSLSSVVTVPSSSLGTQTYICNVNHKPSNTKVDKKVEPKSCDKTHTCPPCPAPEAAGGPSVFLFPPKPKDTLMISRTPEVTCVVVDVSHEDPEVKFNWYVDGVEVHNAKTKPREEQYASTYRVVSVLTVLHQDWLNGKEYKCKVSNKALPAPIEKTISKAKGQPREPQVYTLPPSRCELTKNQVSLSCAVKGFYPSDIAVEWESNGQPENNYKTTPPVLDSDGSFFLVSKLTVDKSRWQQGNVFSCSVMHEALHNHYTQKSLSLSPDYKDDDDK
chain: EPKSSDKTHTCPPCPAPELLGGPSVFLFPPKPKDTLMISRTPEVTCVVVDVSHEDPEVKFNWYVDGVEVHNAKTKPREEQYNSTYRVVSVLTVLHQDWLNGKEYKCKVSNKALPAPIEKTISKAKGQPREPQVCTLPPSRDELTKNQVSLWCLVKGFYPSDIAVEWESNGQPENNYKTTPPVLDSDGSFFLYSKLTVDKSRWQQGNVFSCSVMHEALHNRYTQKSLSLSP
light: DIVMTQSPLSLPVTPGEPASISCRSSQSLVHSNRWTYLHWYQQKPGQAPRLLIYKVSNRFSGVPDRFSGSGSGTDFTLKISRVEAEDVGVYYCGQGTQVPYTFGQGTKLEIKRTVAAPSVFIFPPSDEQLKSGTASVVCLLNNFYPREAKVQWKVDNALQSGNSQESVTEQDSKDSTYSLSSTLTLSKADYEKHKVYACEVTHQGLSSPVTKSFNRGEC

Biological target: T1, CD3ε homodimer protein (human, UniProt P07766 23-126, limits assumed)
T1 construct: also called CD3 (CD3ε)
Assay: SPR Biacore T200, CD3ε homodimer on chip;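 note: Light-chain single-residue variant antibodies injected over amine-coupled CD3ε homodimer on a CM4 chip at 25 °C, bound amount divided by that of the GLS3000-containing antibody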

T1 sequence (P07766 23-126 limits assumed): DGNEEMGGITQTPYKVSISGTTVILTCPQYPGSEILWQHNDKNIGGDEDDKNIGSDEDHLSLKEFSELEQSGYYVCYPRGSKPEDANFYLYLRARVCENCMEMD

Row | Binder | ratio of amount bound vs unaltered GLS3000
1 | B1 | 0.61
2 | B2 | 0.99
